Reference: patent US20040171116A1

How the values were obtained:
[1] = target: rBet v 1.2801 (database accession number: Z80104) (birch); assay: Biacore SPR, BV16 on the chip, antigen injected at 5 concentrations
[2] = target: mutated rMal d 1 (2781) (apple) (UniProt Q40280); assay: as above
[3] = target: receptor-bound IgE on basophils of birch pollen allergic patients; assay: cell-based or functional assay
[4] = target: pooled IgE serum from birch allergic patients (FIG. 8A); assay: solid phase IgE inhibition assay (ADVIA Centaur), reference rBet v 1.2801
[5] = target: pooled IgE serum from birch allergic patients (FIG. 8A); assay: solid phase IgE inhibition assay (ADVIA Centaur), inhibitor at 3000 ng/test, competitor biotinylated rBet v 1.2801

**Q.** How did the Kd [1] turn out when “monoclonal mouse IgG antibody BV16 raised against nBet v 1” was run?
**A.** 240 pM

**Q.** What about the koff [1] of the same molecule?
**A.** 2.5e-05 s⁻¹

**Q.** And the kon [1]?
**A.** 100000 M⁻¹ s⁻¹

**Q.** What about the Kd [2] of the same molecule?
**A.** 270 pM

**Q.** And the kon [2]?
**A.** 120000 M⁻¹ s⁻¹

B1: mutated rMal d 1 (2781), Q40280 2-159 (protein)
chain: GVYTYENEYTSEIPPPRLFKAFVLDADNLIPKIAPQAIKHAENIEGNGGPGTIKKITFGEGSQYKYVKHRIDSVDHANYSYAYTLIEGDALTDTIEKVSYETKLVASGSGSIIKSISHYHTKGDVEIMEEHVKAGKEKAHGLFKLIESYLKDHPDAYN
**Q.** For B1, which shift of the histamine release curve toward higher antigen concentrations compared to rBet v 1.2801 [3] is on record?
**A.** 2 fold

B2: mutated rMal d 1 (2760), Q40280 2-159 (protein)
chain: GVYTYENEYTSEIPPPRLFKAFVLDADTLIPQIAPQAIKHAEILSGDGGPGTIKKITFGEGSQYGYVKHKIDSVDEANYSYAYTLIEGDALTDTIEKVSYETKLVASGSGSIIKSISHYHTKGDVEIMEEHVKAGKEKAHGLFKLIESYLKDHPDAYN
**Q.** How did the concentration required to trigger histamine release in patient (p) compared to rBet v 1.2801 [3] turn out when B2 was run?
**A.** 100 fold

B3: mutated rMal d 1 (2781) (protein)
chain: GVYTYENEYTSEIPPPRLFKAFVLDADNLIPKIAPQAIKHAENIEGNGGPGTIKKITFGEGSQYKYVKHRIDSVDHANYSYAYTLIEGDALTDTIEKVSYETKLVASGSGSIIKSISHYHTKGDVEIMEEHVKAGKEKAHGLFKLIESYLKDHPDAYN
**Q.** What does the source list for B3?
**A.** fold higher antigen concentration than rBet v 1.2801 to reach the same IgE inhibition (39%) [4]: 1000 fold; percent inhibition of binding of serum-IgE to biotinylated rBet v 1.2801 [5]: 39%

B4: mutated rMal d 1 (2762), Q40280 2-159 (protein)
chain: GVYTYENEYTSVIPPARLFKAFVLDADNLIPKIAPQAIKHAEILEGDGGPGTIKKITFGEGSQYGYVKHKIDSVDEANYSYAYTLIEGDALTDTIEKVSYETKLVATPDGGSIIKSISHYHTKGDVEIMEEHVKAGKEKAHGLFKLIESYLLDHSDAYN
**Q.** B4 was tested. Which shift of the histamine release curve toward higher antigen concentrations compared to rBet v 1.2801 [3] did it give?
**A.** 20 fold

B5: mutated rMal d 1 (2762) (protein)
chain: GVYTYENEYTSVIPPARLFKAFVLDADNLIPKIAPQAIKHAEILEGDGGPGTIKKITFGEGSQYGYVKHKIDSVDEANYSYAYTLIEGDALTDTIEKVSYETKLVATPDGGSIIKSISHYHTKGDVEIMEEHVKAGKEKAHGLFKLIESYLLDHSDAYN
**Q.** With B5 as the molecule, how does the fold higher antigen concentration than rBet v 1.2801 to reach the same IgE inhibition (62%) [4] read?
**A.** 500 fold

**Q.** And the percent inhibition of binding of serum-IgE to biotinylated rBet v 1.2801 [5]?
**A.** 62%
